The text below walks through data of patent WO2018225033A1.

Where only a bound is given, the exact number is not on record here.

In one assay the target is FcyR. Nature of the assay: cell-based or functional assay.
Assay [1] deals with rabbit Fc-tagged recombinant extracellular human ICOS (human) (UniProt Q9Y6W8). Briefly: SPR, Biacore T200, 1:1 kinetics model, rabbit Fc-tagged extracellular human ICOS.
The target is the same in assay [2]. Briefly: SPR, Biacore; reference is human ICOS-L binding to dimeric human ICOS (FIG. 15B). (Surface plasmon resonance follows binding to a sensor surface in real time, without labels.)

Sequence of UniProt Q9Y6W8 (Q9Y6W8 21-140): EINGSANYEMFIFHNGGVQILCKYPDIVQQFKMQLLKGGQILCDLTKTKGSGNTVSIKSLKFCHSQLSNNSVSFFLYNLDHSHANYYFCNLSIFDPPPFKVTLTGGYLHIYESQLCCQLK

B1: H2L5 IgG4PE (antibody, V domains shown)
VH: QVQLVQSGAEVKKPGSSVKVSCKASGYTFTDYAMHWVRQAPGQGLEWMGLISIYSDHTNYNQKFQGRVTITADKSTSTAYMELSSLRSEDTAVYYCGRNNYGNYGWYFDVWGQGTTVTVSS
VL: EIVLTQSPATLSLSPGERATLSCSASSSVSYMHWYQQKPGQAPRLLIYDTSKLASGIPARFSGSGSGTDYTLTISSLEPEDFAVYYCFQGSGYPYTFGQGTKLEIK
In the assay with FcyR, B1 had an IFN-γ induction in activated human PBMC assay of over 2 fold and an IFN-γ induction in modified mixed lymphocyte reaction of over 2 fold. Also, in assay [1], the Kd was found to be 1.34 nM. For the same molecule, the fold higher affinity than the ICOS-L/ICOS interaction in assay [2] amounted to 17 fold.

As usually defined, the Kd is the free concentration of one partner at which half of the binding sites on the other are occupied at equilibrium, for simple one-to-one binding.
